Assay [1] addresses human LOX1 on cells (human LOX1 transfected CHO TREX cells) (human) (UniProt P78380). Kind of assay: competition with DyLight 649 oxLDL on human LOX1 CHO TREX cells, FMAT.
In assay [2] the target is recombinant human LOX1 (R&D Systems) (human) (UniProt P78380). Briefly: competition with biotin CRP on plate-bound recombinant human LOX1, DELFIA.
The target in assay [3] is human LOX1 on cells (human LOX1 transfected CHO TREX cells) (human) (UniProt P78380). Briefly: competition with DyLight 649 AGE-BSA on human LOX1 CHO TREX cells, FMAT.
Assay [4] shares this target. Kind of assay: cell-based or functional assay.

Take “23C11, commercially available mouse anti-LOX-1 antibody”: the IC50 (read off the curve) in assay [1] came out at 3 nM; in assay [2], 10 nM; in assay [3], 2 nM. Besides, in assay [4], the IC50 of inhibition of Cypher 5E oxLDL internalization in hLOX1 CHO TREX cells (row label not given; assay assigned by block order of Table 5) was 2.85 nM. Further, the IC50 of inhibition of oxLDL-dependent ROS generation in hLOX1 CHO TREX cells (row label not given; assay assigned by block order of Table 5) in assay [4] amounted to 10.1 nM.
